Assay results from patent US20200079833A1 (AstraZeneca / MedImmune, published 2020).
Starred links: 1 amine or outer side, 2 acyl side, 3 side chain; linkers in the order of their positions; H or OH if unused. Non-standard residues stand in square brackets, D forms with d. Groups on a side chain read outwards from the residue. Primed or numbered codes have the meaning given here. No end group written: not given here. *: point of attachment. γGlu = O=C(O)[C@H](CCC(=O)[*:2])N[*:1]; αMeF = C[C@](N)(Cc1ccccc1)C(=O)O; αMeK = C[C@](N)(CCCCN)C(=O)O; Lauroyl = CCCCCCCCCCCC(=O)*; αMeS = C[C@](N)(CO)C(=O)O; PEG2′ = not defined here; Aib = CC(C)(N)C(=O)O

T1: glucose-dependent insulinotropic peptide (gastric inhibitory polypeptide) receptor (GIPR), primary cAMP assay … (human, UniProt P48546 22-466)
T1 sequence (looked up): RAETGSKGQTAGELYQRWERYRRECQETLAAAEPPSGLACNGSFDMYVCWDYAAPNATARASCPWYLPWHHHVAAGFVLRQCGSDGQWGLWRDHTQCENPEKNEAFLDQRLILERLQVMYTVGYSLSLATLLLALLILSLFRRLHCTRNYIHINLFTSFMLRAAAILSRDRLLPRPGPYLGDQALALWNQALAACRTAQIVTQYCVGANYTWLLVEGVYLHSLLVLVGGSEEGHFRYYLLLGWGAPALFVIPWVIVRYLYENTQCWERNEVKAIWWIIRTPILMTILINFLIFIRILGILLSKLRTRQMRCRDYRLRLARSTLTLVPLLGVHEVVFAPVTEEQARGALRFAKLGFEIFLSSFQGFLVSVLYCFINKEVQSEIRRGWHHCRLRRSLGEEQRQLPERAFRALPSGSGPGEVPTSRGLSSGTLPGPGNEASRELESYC

B1: SEQ ID NO: 463 (peptide)
peptide: H[Aib]EGS[αMeF]TSDV[αMeS]SK([PEG2′-PEG2′-γGlu-Lauroyl])LEK([PEG2′-PEG2′-γGlu-Lauroyl])EAA[αMeK]EFIAK([PEG2′-PEG2′-γGlu-Lauroyl])VVEGG-NH2
B2: SEQ ID NO: 465 (peptide)
peptide: H[Aib]EGS[αMeF]TSDV[αMeS]SK([PEG2′-PEG2′-γGlu-Lauroyl])LEGEK([PEG2′-PEG2′-γGlu-Lauroyl])A[αMeK]EFIAK([PEG2′-PEG2′-γGlu-Lauroyl])VVEGG-NH2
B3: SEQ ID NO: 457 (peptide)
peptide: H[Aib]EGS[αMeF]TSDK([PEG2′-PEG2′-γGlu-Lauroyl])SSYLEGEK([PEG2′-PEG2′-γGlu-Lauroyl])A[αMeK]EFIAK([PEG2′-PEG2′-γGlu-Lauroyl])VVEGG-NH2
B4: SEQ ID NO: 460 (peptide)
peptide: H[Aib]EGS[αMeF]TSDVSK([PEG2′-PEG2′-γGlu-Lauroyl])YLEGK([PEG2′-PEG2′-γGlu-Lauroyl])AA[αMeK]EFIAK([PEG2′-PEG2′-γGlu-Lauroyl])VVEGG-NH2
B5: SEQ ID NO: 459 (peptide)
peptide: H[Aib]EGS[αMeF]TSDVSK([PEG2′-PEG2′-γGlu-Lauroyl])YLEK([PEG2′-PEG2′-γGlu-Lauroyl])EAA[αMeK]EFIAK([PEG2′-PEG2′-γGlu-Lauroyl])VVEGG-NH2
B6: SEQ ID NO: 468 (peptide)
peptide: H[Aib]EGS[αMeF]TSDV[αMeS]SYK([PEG2′-PEG2′-γGlu-Lauroyl])EGK([PEG2′-PEG2′-γGlu-Lauroyl])AA[αMeK]EFIAK([PEG2′-PEG2′-γGlu-Lauroyl])VVEGG-NH2
B7: SEQ ID NO: 461 (peptide)
peptide: H[Aib]EGS[αMeF]TSDVSK([PEG2′-PEG2′-γGlu-Lauroyl])YLEGEK([PEG2′-PEG2′-γGlu-Lauroyl])A[αMeK]EFIAK([PEG2′-PEG2′-γGlu-Lauroyl])VVEGG-NH2
B8: SEQ ID NO: 453 (peptide)
peptide: H[Aib]EGS[αMeF]TSDV[αMeS]SYK([PEG2′-PEG2′-γGlu-Lauroyl])EGEK([PEG2′-PEG2′-γGlu-Lauroyl])A[αMeK]EFIK([PEG2′-PEG2′-γGlu-Lauroyl])FVVEGG-NH2
B9: SEQ ID NO: 451 (peptide)
peptide: H[Aib]EGS[αMeF]TSDV[αMeS]SYK([PEG2′-PEG2′-γGlu-Lauroyl])EK([PEG2′-PEG2′-γGlu-Lauroyl])EAA[αMeK]EFIK([PEG2′-PEG2′-γGlu-Lauroyl])FVVEGG-NH2
B10: SEQ ID NO: 456 (peptide)
peptide: H[Aib]EGS[αMeF]TSDK([PEG2′-PEG2′-γGlu-Lauroyl])SSYLEGK([PEG2′-PEG2′-γGlu-Lauroyl])AA[αMeK]EFIAK([PEG2′-PEG2′-γGlu-Lauroyl])VVEGG-NH2
B11: SEQ ID NO: 452 (peptide)
peptide: H[Aib]EGS[αMeF]TSDV[αMeS]SYK([PEG2′-PEG2′-γGlu-Lauroyl])EGK([PEG2′-PEG2′-γGlu-Lauroyl])AA[αMeK]EFIK([PEG2′-PEG2′-γGlu-Lauroyl])FVVEGG-NH2

Target: GLP-1 receptor (GLP-1R), primary cAMP assay cell line (human, UniProt P43220 24-463)
Experiment: cell-based or functional assay

Point of comparison: B11, “cAMP Primary assay EC50, Mean pM GLP-1R” value 80.9 pM. Against it:
- B1 — higher, 82 pM
- B2 — higher, 117 pM
- B3 — higher, 142 pM
- B4 — lower, 78.1 pM
- B5 — higher, 100 pM
- B6 — lower, 73.5 pM
- B7 — higher, 110 pM
- B8 — higher, 114 pM
- B9 — higher, 93.4 pM
- B10 — higher, 170 pM

Point of comparison: B6, “cAMP Primary assay EC50, n1” value 0.0624 nM. Against it:
- B1 — within 1.5-fold, 0.0695 nM
- B2 — 1.6-fold higher, 0.101 nM
- B3 — 2-fold higher, 0.127 nM
- B4 — within 1.5-fold, 0.0674 nM
- B5 — within 1.5-fold, 0.0895 nM
- B7 — within 1.5-fold, 0.0745 nM
- B8 — within 1.5-fold, 0.0629 nM
- B9 — 2.2-fold lower, 0.0288 nM
- B10 — 1.9-fold higher, 0.116 nM
- B11 — within 1.5-fold, 0.0857 nM

Point of comparison: B4, “cAMP Primary assay EC50, n2” value 0.0888 nM. Against it:
- B1 — within 1.5-fold, 0.0944 nM
- B2 — within 1.5-fold, 0.133 nM
- B3 — 1.8-fold higher, 0.156 nM
- B5 — within 1.5-fold, 0.111 nM
- B6 — within 1.5-fold, 0.0845 nM
- B7 — 1.6-fold higher, 0.145 nM
- B8 — 1.9-fold higher, 0.165 nM
- B9 — 1.8-fold higher, 0.158 nM
- B10 — 2.5-fold higher, 0.224 nM
- B11 — within 1.5-fold, 0.0761 nM

Target: glucagon receptor (GCGR), primary cAMP assay cell line (human, UniProt P47871 26-477)
Sequence (P47871 26-477): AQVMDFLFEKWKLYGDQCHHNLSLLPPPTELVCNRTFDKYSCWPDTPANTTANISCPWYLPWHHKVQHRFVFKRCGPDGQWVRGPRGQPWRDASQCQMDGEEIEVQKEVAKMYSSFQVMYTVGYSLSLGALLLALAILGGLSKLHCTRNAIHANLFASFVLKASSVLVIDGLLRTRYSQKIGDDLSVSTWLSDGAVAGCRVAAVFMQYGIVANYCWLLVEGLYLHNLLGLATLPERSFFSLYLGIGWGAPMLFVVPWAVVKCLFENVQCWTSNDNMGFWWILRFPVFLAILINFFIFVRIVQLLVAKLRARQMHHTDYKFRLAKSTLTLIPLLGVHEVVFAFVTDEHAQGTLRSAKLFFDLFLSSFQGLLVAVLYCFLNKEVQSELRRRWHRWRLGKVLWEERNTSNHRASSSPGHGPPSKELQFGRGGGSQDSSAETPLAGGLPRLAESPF
Experiment: cell-based or functional assay

Point of comparison: B10, “cAMP Primary assay EC50, n1” value 10 nM. Against it:
- B1 — 2-fold higher, 20 nM
- B2 — 2-fold higher, 20 nM
- B3 — 2-fold higher, 19.8 nM
- B4 — 2-fold higher, 20 nM
- B5 — 2-fold higher, 19.7 nM
- B6 — 2-fold higher, 20 nM
- B7 — 2-fold higher, 19.8 nM
- B8 — 1.9-fold higher, 19.5 nM
- B9 — 2-fold higher, 19.7 nM
- B11 — 1.9-fold higher, 19.5 nM

Point of comparison: B11, “cAMP Primary assay EC50, n2” value 19.7 nM. Against it:
- B1 — within 1.5-fold, 20 nM
- B2 — within 1.5-fold, 20 nM
- B3 — within 1.5-fold, 19.8 nM
- B4 — within 1.5-fold, 20 nM
- B5 — the same, 19.7 nM
- B6 — within 1.5-fold, 20 nM
- B7 — within 1.5-fold, 19.8 nM
- B8 — within 1.5-fold, 19.5 nM
- B9 — within 1.5-fold, 19.5 nM
- B10 — within 1.5-fold, 20 nM

Target: T1, glucose-dependent insulinotropic …
Experiment: cell-based or functional assay

Point of comparison: B2, “cAMP Primary assay EC50, n1” value 20 nM. Against it:
- B1 — the same, 20 nM
- B3 — within 1.5-fold, 19.8 nM
- B4 — the same, 20 nM
- B5 — within 1.5-fold, 19.7 nM
- B6 — the same, 20 nM
- B7 — within 1.5-fold, 19.8 nM
- B8 — within 1.5-fold, 19.5 nM
- B9 — within 1.5-fold, 19.7 nM
- B10 — the same, 20 nM
- B11 — within 1.5-fold, 19.5 nM

Point of comparison: B5, “cAMP Primary assay EC50, n2” value 19.7 nM. Against it:
- B1 — within 1.5-fold, 20 nM
- B2 — within 1.5-fold, 20 nM
- B3 — within 1.5-fold, 19.8 nM
- B4 — within 1.5-fold, 20 nM
- B6 — within 1.5-fold, 20 nM
- B7 — within 1.5-fold, 19.8 nM
- B8 — within 1.5-fold, 19.5 nM
- B9 — within 1.5-fold, 19.5 nM
- B10 — within 1.5-fold, 20 nM
- B11 — the same, 19.7 nM
